Assay [1] relates to basophils. Kind of assay: Basophil Activation Test. It counts as cell-based, human. The conditions noted are these: non-latex allergic control subject N2. As for the experimental part:
FIG. 9 is a graphical representation of the basophil Activation Test on a latex allergic donor. Whole blood from a latex allergic, Hev b 6 sensitized subject was incubated with latex allergens. The cells were stained with FITC labelled anti-human IgE polyclonal antibodies and a PE labelled monoclonal anti-human CD63 antibody. Cells were analysed by flow cytometry defining basophils on the basis of scatter (A) and high IgE staining (B). The percentage of activated basophils expressing CD63 was determined (C).
The Basophil Activation Test was performed on whole blood from (A) non-latex allergic subject N2; (B) latex-allergic subject A7; (C) latex-allergic subject A8 and (D) latex-allergic subject A10. Antigens: latex glove extract (GE), hevein peptide (hevein), rHev b 6, mutant rHev b 6 (MU rHev b 6), sulphonated rHev b 6, (sul. rHev b 6), rHev b 5, KLH and house dust mite extract (HDM). All allergens were used at 10 μg/ml except for rHev b 6 and mutant rHev b 6 which were used at 0.1, 1 and 10 μg/ml. The cut-off for positive was set at the level of activated basophils after incubation in stimulation buffer alone (no antigen, horizontal line). A plus symbol (+) indicates antigen to which a subject has either a positive clinical history of allergy and/or a positive reading on an allergen-specific IgE ELISA.
A basophil activation assay based on flow cytometry was used to quantify the activation of basophils after incubation with various allergens. This assay was modified from Paris-Kohler A, Demoly P, Persi L, Lebel B, Bousquet J, Arnoux B. In vitro diagnosis of cypress pollen allergy by using cytofluorimetric analysis of basophils (Basotest). J Allergy Clin Immunol 2000; 105:339-45. Whole blood was collected in 6 ml heparinised vacutainers (Greiner). 100 μl aliquots were preincubated with stimulation buffer (20 mM Hepes, 133 mM NaCl, 5 mM KCl, 7 mM CaCl2, 3.5 mM MgCl2, 1 mg/ml BSA, 20 μl/ml heparin, pH 7.4) containing 2 ng/ml IL-3, for 10 min at 37° C., to increase the sensitivity of the assay. Samples were incubated for 20 min at 37° C. with 100 μl of stimulation buffer alone or stimulation buffer containing either rabbit anti-human IgE (Dako) at 1 in 500 dilution, 2 μM N-fMLP (Sigma, Mo, USA), crude allergen extracts, recombinant latex allergens or Keyhole Limpet Haemocyanin (KLH) (Sigma, Mo, USA). Basophil activation was stopped by incubating at 4° C. for 5 min. Normal goat serum (10 μl) was added to each tube to block non-specific binding of the detection antibody (goat anti-human IgE-FITC) and incubated for 10 min at 4° C. Samples were incubated with goat anti-human IgE-FITC (Caltag, Birmingham, Calif.) at a dilution of 1 in 2.5, and mouse anti-human CD63-R-Phycoerythrin (PE; Caltag, Birmingham, Calif.) at a dilution of 1 in 20, in a 20 μl volume of wash buffer (20 mM HEPES, 133 mM NaCl, 5 mM KCl, 0.27 mM EDTA, pH7.3). RBC were lysed by the addition of 2 ml FACS lysing solution (39 mM NH4Cl, 2.5 mM KHCO3, 0.2 mM EDTA) and incubation for 10 min at room temperature. Cells were centrifuged (250 g, 5 min at 4° C.), resuspended in 3 ml wash buffer, and centrifuged as before. Pellets were resuspended in 200 μl wash buffer, and analysed by flow cytometry (FACScalibur, Becton Dickinson) within 2 h of the experiment. 7AAD (Sigma, Mo, USA) was added to the samples 5 min prior to FACS analysis.

For assay [2] the following is noted: Chen Z et al., 1997; cited from earlier work.
The target in assay [3] is serum IgE of latex-allergic subject A7. Kind of assay: inhibition ELISA of IgE binding to plate-coated rHev b 6, soluble inhibitor 0.0016-125 µg/ml (FIG. 8B). In general terms: An ELISA detects its analyte on a solid surface through an enzyme-linked reagent.
Assay [4] deals with serum IgE of latex-allergic subject A6. Kind of assay: inhibition ELISA of IgE binding to plate-coated rHev b 6, soluble inhibitor 0.0016-125 µg/ml (FIG. 8C).
For assay [5], the target named is IgE from the sera of latex allergic, Hev b 6 sensitised subjects. Kind of assay: inhibition ELISA of IgE binding to plate-coated rHev b 6, estimated.
The target in assay [6] is serum IgE of a latex-allergic, Hev b 5 positive subject. The assay is described as follows: non-specific inhibition ELISA: serum preincubated with inhibitor, IgE binding to rHev b 5 read (data not shown).
Assay [7] has as its target serum IgE of latex-allergic subject A8. The assay is described as follows: inhibition ELISA of IgE binding to plate-coated rHev b 6, inhibitor at 125 µg/ml (FIG. 8D).
In assay [8] the target is IgE from the sera of latex allergic, Hev b 6 sensitised subjects. Kind of assay: inhibition ELISA of IgE binding to plate-coated rHev b 6, ratio of the 30% inhibition concentrations.

Numbering of substitutions follows the chain as printed.

As to “hevein peptide: 43-mer hevein peptide synthesised according to the prohevein amino acid sequence by Mimotopes (EQCGRQAGGKLCPNNLCCSQWGWCGSTDEYCSPDHNCQSNCKD)”, the basophil activation entry in assay [1] is “negligible”.
“Hevein: 4.7 kDa hydrophilic protein which forms the N-terminus of pro-hevein (EQCGRQAGGKLCPNNLCCSQWGWCGSTDEYCSPDHNCQSNCKD)”: in assay [2], the “patients with latex allergy reacting on skin testing” value is recorded as 81%.

B1: rHev b 5: recombinant latex allergen Hev b 5 (protein)
chain: ASVEVESAATALPKNETPEVTKAEETKTEEPAAPPASEQETADATPEKEEPTAAPAEPEAPAPETEKAEEVEKIEKTEEPAPEADQTTPEEKPAEPEPVAEEEPKHETKETETEAPAAPAEGEKPAEEEKPITEAAETATTEVPVEKTEE
Take B1: the basophil activation result in assay [1] is “negligible”.

B2: Recombinant Hev b 6 (rHev b 6) (protein, not shown: small tags and cut ends)
chain: EQCGRQAGGKLCPNNLCCSQWGWCGSTDEYCSPDHNCQSNCKDSGEGVGGGSASNVLATYHLYNSQDHGWDLNAASAYCSTWDANKPYSWRSKYGWTAFCGPVGAHGQSSCGKCLSVTNTGTGAKTTVRIVDQCSNGGLDLDVNVFRQLDTDGKGYERGHITVNYQFVDCGDSFNPLFSVMKSSVIN
In the case of B2, the percent inhibition in assay [3], in assay [4] and in assay [7] was 100% in each case. Moreover, the inhibitor concentration giving 30% inhibition of IgE binding in assay [5] was 0.01 µg/mL. Also, the percent inhibition (non-specific control) in assay [6] is < 20%.

B3: mutant rHev b 6 (cysteine to alanine substitution at amino acid 3) (protein, not shown: small tags and cut ends)
chain: B2 chain with C3A
Regarding B3, in assay [5], the inhibitor concentration giving 30% inhibition of IgE binding is 125 µg/mL. Further, the percent inhibition (non-specific control) in assay [6] is < 20%. The fold more inhibitor required than rHev b 6 in assay [8] was 12500 fold. Further, the maximum percent inhibition in assay [7] stood at 32%.
